Experimental data reported in the supplement of paper PMC10598134.
± gives the standard deviation.

Assay: collision cross section of modified peptide (TIMS, N2, iRT-aligned); higher = larger / more extended gas-phase ion
Outline: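 Collision cross section was derived from the Mason-Schamp equation. Each value averages 1–3 technical replicates of the most abundant feature per charge state, measured on a timsTOF Pro/HT in dda-PASEF mode (nitrogen, ~2.4 mbar) after a 120-min nanoflow C18 gradient at 60 °C. Synthetic peptide pools (~100 fmol/µL in 2% acetonitrile/0.1% formic acid, iRT standard spiked 1:40) were identified with MaxQuant, and 1/K0 was calibrated with three reference ions and aligned run-wise to the median iRT peptide deviation.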

[1] = charge state: 2, modification: Succinyl
[2] = charge state: 2, modification: Glutarylation
[3] = charge state: 3, modification: Glutarylation
[4] = charge state: 2, modification: Crotonyl
[5] = charge state: 2, modification: GlyGly (K)
[6] = charge state: 3, modification: GlyGly (K)
[7] = charge state: 2, modification: Butyryl
[8] = charge state: 2, modification: Dimethyl (K)
[9] = charge state: 3, modification: Dimethyl (K)
[10] = charge state: 2, modification: Nitro (Y)

With “VLDSGAPIKIPVGPETLGR [_VLDSGAPIK(Succinyl)IPVGPETLGR_]” as the sequence, how does the collision cross section [1] read?
Its collision cross section is 470.32 ± 0.95 Å².

Which results are given for “IHNAENIQPGEQKYEYK [_IHNAENIQPGEQK(Gluratylation)YEYK_]”?
collision cross section [2]: 490.8 ± 1.2 Å²; collision cross section [3]: 532.09 ± 1.1 Å²

For “SGKFTQQDIDEAK [_SGK(Succinyl)FTQQDIDEAK_]”, which collision cross section [1] is on record?
Its collision cross section is 414.39 ± 0.54 Å².

Which collision cross section [4] does the source give for “VGVEVPDVNIEGPEGKLK [_VGVEVPDVNIEGPEGK(Crotonyl)LK_]” here?
The collision cross section was 462.4 ± 1.4 Å².

With “PSVSTKLISK [_PSVSTK(Gluratylation)LISK_]” as the sequence, how does the collision cross section [2] read?
The collision cross section was 361.01 ± 0.71 Å².

With “SGKFTQQDIDEAK [_SGK(Methyl (K))FTQQDIDEAK_]” as the sequence, how does the collision cross section (charge state: 2, modification: Methyl (K)) read?
The collision cross section was 408.84 ± 1.9 Å².

What about the collision cross section (charge state: 3, modification: Methyl (K)) of the same sequence?
Its collision cross section is 468.01 ± 3.6 Å².

Which results are given for “GTITVSAQELKDNR [_GTITVSAQELK(GlyGly (K))DNR_]”?
collision cross section [5]: 442.89 ± 0.96 Å²; collision cross section [6]: 487.43 ± 0.34 Å²

With LDEKENLSAK [_LDEK(Butyryl)ENLSAK_] as the sequence, how does the collision cross section [7] read?
The collision cross section was 370.93 ± 0.84 Å².

Which results are given for “INNFSADIKDSK [_INNFSADIK(Dimethyl (K))DSK_]”?
collision cross section [8]: 406.51 ± 0.23 Å²; collision cross section [9]: 455.06 ± 5.9 Å²

Which collision cross section (charge state: 3, modification: Malonyl) does the source give for “VGIDTPDIDIHGPEGKLK [_VGIDTPDIDIHGPEGK(Malonyl)LK_]” here?
The collision cross section was 540.98 Å².

Which collision cross section [4] does the source give for “IINEPTAAAIAYGLDKK [_IINEPTAAAIAYGLDK(Crotonyl)K_]” here?
The collision cross section was 463.28 ± 1.3 Å².

What about the collision cross section (charge state: 3, modification: Crotonyl) of the same sequence?
The collision cross section was 561.41 ± 1.2 Å².

With ASEALLKQLK [_ASEALLK(Dimethyl (K))QLK_] as the sequence, how does the collision cross section [8] read?
Its collision cross section is 366.02 ± 0.28 Å².

What about the collision cross section [9] of the same sequence?
The collision cross section was 439.24 ± 2.8 Å².

With “GSLGAQKLANTCFNEIEK [_GSLGAQK(Gluratylation)LANTCFNEIEK_]” as the sequence, how does the collision cross section [2] read?
Its collision cross section is 469.86 Å².

With “CSVLAAANPVYGR [_CSVLAAANPVY(Nitro (Y))GR_]” as the sequence, how does the collision cross section [10] read?
Its collision cross section is 387.22 ± 0.17 Å².

What does the source list for “VGLQVVAVKAPGFGDNR [_VGLQVVAVK(Gluratylation)APGFGDNR_]”?
collision cross section [2]: 447.64 ± 0.95 Å²; collision cross section [3]: 510.32 ± 1 Å²

For IGNSYFKEEK [_IGNSYFK(GlyGly (K))EEK_], which collision cross section [5] is on record?
The collision cross section was 386.48 ± 0.54 Å².

And the collision cross section [6]?
Its collision cross section is 442.05 ± 1.6 Å².

For “VGVEVPDVNIEGPEGKLK [_VGVEVPDVNIEGPEGK(Dimethyl (K))LK_]”, which collision cross section [8] is on record?
The collision cross section was 456.47 ± 2.5 Å².

What about the collision cross section [9] of the same sequence?
Its collision cross section is 540.33 ± 0.77 Å².

With “GSIGFPGFPGANGEKGGR [_GSIGFP(Hydroxyproline)GFPGANGEKGGR_]” as the sequence, how does the collision cross section (charge state: 3, modification: Hydroxyproline) read?
Its collision cross section is 489.41 ± 4 Å².

With AYGELPEHAK [_AY(Phospho (Y))GELPEHAK_] as the sequence, how does the collision cross section (charge state: 2, modification: Phospho (Y)) read?
Its collision cross section is 362.96 ± 0.74 Å².

What about the collision cross section (charge state: 3, modification: Phospho (Y)) of the same sequence?
The collision cross section was 450.05 Å².

Which collision cross section [8] does the source give for “ASNAAVKLAESK [_ASNAAVK(Dimethyl (K))LAESK_]” here?
The collision cross section was 387.86 ± 0.56 Å².

What about the collision cross section [9] of the same sequence?
The collision cross section was 452.98 ± 1.6 Å².

Which collision cross section (charge state: 2, modification: Formyl) does the source give for IQQELQTAKK [_IQQELQTAK(Formyl)K_] here?
The collision cross section was 369.08 ± 0.89 Å².

For “GVEAVGSYAENQR [_GVEAVGSY(Nitro (Y))AENQR_]”, which collision cross section [10] is on record?
The collision cross section was 377.43 ± 0.17 Å².

And the collision cross section (charge state: 3, modification: Nitro (Y))?
Its collision cross section is 473.04 ± 0.83 Å².

For LLEEEDSKLK [_LLEEEDSK(Dimethyl (K))LK_], which collision cross section [8] is on record?
Its collision cross section is 385.27 ± 0.26 Å².

What about the collision cross section [9] of the same sequence?
The collision cross section was 435.11 ± 2.1 Å².

With “TQAEGQGQGRGLGLVSAVR [_TQAEGQGQGR(Methyl (R))GLGLVSAVR_]” as the sequence, how does the collision cross section (charge state: 3, modification: Methyl (R)) read?
The collision cross section was 510.91 ± 2 Å².

Which collision cross section [1] does the source give for GSLEKGSPEDK [_GSLEK(Succinyl)GSPEDK_] here?
The collision cross section was 366.43 ± 0.51 Å².

With “IPAASAAAMNLASAR [_IPAASAAAMNLAS(HexNAc (ST))AR_]” as the sequence, how does the collision cross section (charge state: 2, modification: HexNAc (ST)) read?
The collision cross section was 422.38 ± 0.62 Å².

What does the source list for “GGGGGRGGLHDFR [_GGGGGR(Citrullination (R))GGLHDFR_]”?
collision cross section (charge state: 2, modification: Citrullination (R)): 380.63 ± 2.7 Å²; collision cross section (charge state: 3, modification: Citrullination (R)): 438.48 ± 1.8 Å²

Which collision cross section [2] does the source give for “LLEQKTQESQK [_LLEQK(Gluratylation)TQESQK_]” here?
Its collision cross section is 402.96 ± 0.5 Å².

For LEQVEKELLR [_LEQVEK(Dimethyl (K))ELLR_], which collision cross section [8] is on record?
Its collision cross section is 388.36 ± 0.25 Å².

What about the collision cross section [9] of the same sequence?
The collision cross section was 444.88 ± 2.1 Å².

For ITGKNQVTATK [_ITGK(Propionyl)NQVTATK_], which collision cross section (charge state: 2, modification: Propionyl) is on record?
The collision cross section was 368.3 ± 0.65 Å².

For ASEALLKQLK [_ASEALLK(Crotonyl)QLK_], which collision cross section [4] is on record?
The collision cross section was 379.57 ± 1.1 Å².

With “VLTANSNPSSPSAAKR [_VLTANSNPSSPSAAK(Butyryl)R_]” as the sequence, how does the collision cross section [7] read?
Its collision cross section is 432.84 ± 1.8 Å².

What about the collision cross section (charge state: 3, modification: Butyryl) of the same sequence?
The collision cross section was 531.28 ± 2.7 Å².

For LLEQKTQESQK [_LLEQK(Acetyl (K))TQESQK_], which collision cross section (charge state: 2, modification: Acetyl (K)) is on record?
Its collision cross section is 392.69 ± 0.79 Å².
